Test [1] addresses human Ang-2 changed at positions 365 and 367 (human) (UniProt O15123). Nature of the test: ELISA. Background: In an ELISA, binding on a coated surface is turned into a signal by an enzyme label.
Test [2] concerns the target human Angiopoietin-2 (human) (UniProt O15123). Nature of the test: inhibition of rhAng-2 binding to its receptor.
The target in test [3] is Mouse/Human chimeric Ang-2 with the human StuI-TfiI fragment (mouse/human chimera) (UniProt O35608). Nature of the test: ELISA.
The target of test [4] is human Ang-2 H375Q (human) (UniProt O15123). Nature of the test: ELISA.
Test [5] addresses human Ang-2 V345M (human) (UniProt O15123). Nature of the test: ELISA.
Test [6] deals with T1, Human Ang-1/2 BsmI chimeric molecule (human).
T1 sequence: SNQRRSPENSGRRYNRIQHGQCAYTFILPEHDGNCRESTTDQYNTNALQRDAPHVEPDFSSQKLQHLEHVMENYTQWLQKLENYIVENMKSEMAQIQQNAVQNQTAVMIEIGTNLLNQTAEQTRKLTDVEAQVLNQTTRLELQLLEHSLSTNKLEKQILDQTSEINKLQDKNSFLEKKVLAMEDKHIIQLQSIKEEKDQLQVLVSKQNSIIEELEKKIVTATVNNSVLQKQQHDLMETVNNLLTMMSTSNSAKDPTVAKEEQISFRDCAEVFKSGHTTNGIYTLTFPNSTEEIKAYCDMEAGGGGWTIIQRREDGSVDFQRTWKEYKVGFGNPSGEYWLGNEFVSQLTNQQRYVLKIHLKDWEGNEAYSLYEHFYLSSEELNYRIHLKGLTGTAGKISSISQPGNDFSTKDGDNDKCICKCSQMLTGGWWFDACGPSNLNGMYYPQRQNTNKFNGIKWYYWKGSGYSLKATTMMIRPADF
Nature of the test: ELISA.

For a further test, the target named is human Ang-2443 (human) (UniProt O15123). Nature of the test: ELISA.
Test [7] has as its target Mouse/Human Ang-2 StuI chimeric molecule (mouse; human) (UniProt O35608). Nature of the test: ELISA.
The target of test [8] is mouse Angiopoietin-2 (mouse) (UniProt O35608). Nature of the test: ELISA; member tied by Table 16.

B1: mAb 5.39.1 (antibody, V domains shown)
VH: QVQLVQSGAEVTKPGASVKVSCKASGYTFTAYHMYWVRQAPGQGLEWMGWINPNSGGTNYAQKFQGRVTMTRDTSISTAYMELSRLRSDDSPVYYCARDQGIAAAGPFDYWGQGTLVTVSS
VL: EIVMTQSPATLSVSPGDRATLSCRASQSVSSNFAWYQQKPGQAPRLLIYGSSTRATGIPARFSGSGSGTEFTLTISSLQSEDFAVYYCQQYHYWWTFGQGTKVEFKR
As to B1, the % of binding to human Ang-2 in [1] worked out at 100%.

B2: mAb 5.86.1 (antibody, V domains shown)
VH: QVQLVQSGAEVKKPGASVKVSCKASGYTFTGYHMYWVRQAPGQGLEWLGWINPNSGGTNYAQKFQGRVTMTRDTSISTAYMELSRLRSDDTAVYYCVRDQGIAAAGPFDYWCQGTLVTVSS
VL: DIRMTQSPSSLSASVGDRVTITCRASQRISTYLNWYQQKPGKAPKFLIYAASSLQSGVPSRFSGSGSGTDFTLTISSLQPEDFATYYCQQSYTTPFTFGPGTKVDIKR
Turning to B2, in [1], the % of binding to human Ang-2 amounted to 100%.

B3: mAb 3.3.2 (antibody, V domains shown)
VH: EVQLVESGGGLVQPGGSLRLSCAVSGFTFSSYWMSWVRQAPGKGLEWVANIKQDGSEKYYVDSVKGRFTISRDNAKNSLYLQMNSLRAEDTAVYYCARDQGIAVAGPFDYWGQGTLVTVSS
VL: EIVMTQSPATLSVSPGERATLSCRASQTVSSDLAWYQQKPGQAPRLLIYGASIRATGIPARFSGSGSGTEFTLTISSLQSEDFAVYSCQQYYNWWTFGQGTKVEIKR
As to B3, the % of binding to human Ang-2 in test [1] stood at 100%.

B4: mAb 5.88.3 (antibody, V domains shown)
VH: EVQMVESGGGLVQPGGSLRLSCAASGFTLRSYWMSWVRQAPGKGLEWVANIKEDGSEKYHVDSVKGRFTISRDNAENSLFLQMSSLRAEDTAVYYCARDMEASAGLFDYWGQGTLVTVSS
VL: EIVMTQSPATLSVSPGERAILSCRASQSISSNLAWYQQKPGQAPRLLIYGASTRATGIPARFSGSGSGTEFTLTISSLQSEDFAVYYCQQYNYWWTFGQGTKVEIKR
As for B4, in [1], the % of binding to human Ang-2 was 100%.

B5: mAb 5.62.1 (antibody, V domains shown)
VH: EVQLVESGGGLVQPGGSLRLSCAASGFTFSSYWMSWVRQAPGKGLEWVANIKQDGSEKYYVDSVKGRFTISRDNAKNSLYLQMNSLRAEDTAVYYCARDPGIAVAGPFDYWGQGTLVTVSS
VL: EIVMTQSPATLSVSPGERATLSCRASQSVSSNLAWYQQKPGQAPRLLIYGAFTRATGIPARFSGSGSGTEFTLTISSLQSEDFAVYYCQQYNHWWTFGQGTKVGIKR
As for B5, the % of binding to human Ang-2 in test [1] is 100%.

B6: mAb 6.3.1 (antibody, V domains shown)
VH: QVQLVQSGAEVKKPGASVKVSCKASGYTFTGYFMHWVPQAPGQGLEWMGWINPNSGGTNYAQNFQGRVTMTRDTSISTAYMELSRLRSDDTPVYYCARDPWQNWNSYFDYWGQGTLVTVSS
VL: DIQMTQSPSSLSASVGDRVTITCRASQSIRSYLNWYQQKPGKAPKVLIYAASSLQSGVPSRFSGSGSGTDFTLTISSLQPEDFATYYCQQSYSTLCSFGQGTKLEIKR
Molecule B6 displayed a % of binding to human Ang-2 in [1] of 100%.

B7: mAb 5.28.1 (antibody, V domains shown)
VH: EVQLVESGGIVVQPGGSLRLSCAASGFTFDDYTMHWVRQTPGKGLEWVSLISWDGGSTYYADSVKGRFTISRDNSKNSLYLQMNSLRTEDTALYYCAKDIDIAVAGTGFDHWGQGTLVTVSS
VL: EIVMTQSPATLSVSPGERATLSCRASQSVTSNLAWYQQKPGQAPRLLIYGALIRATGIPARFSGSGSGTEFTLTISSLQSEDFAVYYCQQYNNWPFTFGPGTKVDIKR
B7 returned a % of binding to human Ang-2 in [1] of 100%.

B8: mAb 5.2.1 (antibody, part only; not given: light chain, V domains shown, part only)
VH: QVQLVESGGGVVQPGRSLRLSCAASGFTFSSYGMHWVRQAPGKGLEWVAVIWFDGFNKYYADSVKGRFTISRDNSKNTLYLQMNSLRAEDTAVYHCARDRGYSGYDHYYGMDVWGQGTTVTVSSA
Molecule B8 gave an OD650 in inhibition assay in [2] of 0.069 OD650. In addition, the % of binding to human Ang-2 (in [3]; in test [4]; in [5]; in test [6]; in the test with human Ang-2443 (human); in [7]) was 100% each time. This molecule also had a % of binding to human Ang-2 in [1] of 100%. Further, in [8], the % of immunoreactivity on human Ang-2 worked out at 100%.

B9: mAb 3.28.1 (antibody, part only; not given: light chain, V domains shown, part only)
VH: EVQLVESGGGLVQPGGSLRLSCAASGFTFSSSWMSWVRQAPGKGLEWVANIKQDGSDKYYVDSVKGRFTISRDNAKNSLYLQMNSLRAEDTAVYYCVRDKGSGWFDYWGQGTLVTVSSA
B9: the OD650 in inhibition assay in test [2] is 0.0588 OD650. Moreover, the % of binding to human Ang-2 in [3] was 31%; in test [4], 100%; in test [5] it was 100%; in [6], 100%; in the test with human Ang-2443 (human), 100%; in [7], 100%. Besides, the % of binding to human Ang-2 in [1] is 100%.

The values above are taken from US20080267971A1.
